Patent publication US10562947B2, “Compositions and methods for preventing or treating diseases, conditions or processes characterized by aberrant fibroblast proliferation and extracellular matrix deposition” (MOERAE MATRIX, INC., priority 2011, dated 2020)

How the values were obtained:
Experiment in all cases: Kinase Profiling Assay
Format in all cases: biochemical
Conditions in all cases: 100 μM peptide
[1] = target: AMPKα2(h) (Homo sapiens, UniProt P54646)
Procedure, shortened: (§1)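 All 266 human kinases of a profiling service were assayed in duplicate to establish whether MK2 inhibitory peptides act specifically.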

[2] = target: T1, IRR(h) (Homo sapiens, UniProt P14616)
T1 construct: purchased Millipore
Procedure, shortened: as §1

[3] = target: Tie2(h) (Homo sapiens, UniProt Q02763)
Procedure, shortened: as §1

[4] = target: FGFR1(V561M)(h) (Homo sapiens, UniProt P11362, V561M)
Procedure, shortened: as §1

[5] = target: JNK3(h) (Homo sapiens, UniProt P53779)
Procedure, shortened: as §1

[6] = target: Fes(h) (Homo sapiens, UniProt P07332)
Procedure, shortened: as §1

[7] = target: FGFR1(h) (Homo sapiens, UniProt P11362)
Procedure, shortened: as §1

[8] = target: mTOR(h) (Homo sapiens, UniProt P42345)
Procedure, shortened: as §1

[9] = target: T2, DMPK(h) (Homo sapiens, UniProt Q09013)
T2 sequence (Q09013 1-629): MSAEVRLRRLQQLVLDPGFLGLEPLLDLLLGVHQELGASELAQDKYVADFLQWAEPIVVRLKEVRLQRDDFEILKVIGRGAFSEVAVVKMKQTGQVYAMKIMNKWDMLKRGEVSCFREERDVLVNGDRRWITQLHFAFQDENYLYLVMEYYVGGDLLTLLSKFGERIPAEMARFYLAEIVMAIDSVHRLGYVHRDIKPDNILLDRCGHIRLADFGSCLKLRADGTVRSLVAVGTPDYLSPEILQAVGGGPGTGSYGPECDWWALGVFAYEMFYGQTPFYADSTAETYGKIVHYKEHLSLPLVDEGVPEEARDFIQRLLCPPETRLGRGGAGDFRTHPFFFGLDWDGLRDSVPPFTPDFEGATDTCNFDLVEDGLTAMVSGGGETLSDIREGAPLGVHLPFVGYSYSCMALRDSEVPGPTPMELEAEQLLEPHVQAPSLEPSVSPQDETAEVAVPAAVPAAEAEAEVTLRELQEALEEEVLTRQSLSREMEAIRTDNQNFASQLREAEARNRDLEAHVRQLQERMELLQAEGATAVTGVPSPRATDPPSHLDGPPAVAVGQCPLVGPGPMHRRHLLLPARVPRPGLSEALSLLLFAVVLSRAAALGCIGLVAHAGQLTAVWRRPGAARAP
Procedure, shortened: as §1

[10] = target: T3, DCAMKL2(h) (Homo sapiens, UniProt Q8N568)
T3 sequence (Q8N568 1-766): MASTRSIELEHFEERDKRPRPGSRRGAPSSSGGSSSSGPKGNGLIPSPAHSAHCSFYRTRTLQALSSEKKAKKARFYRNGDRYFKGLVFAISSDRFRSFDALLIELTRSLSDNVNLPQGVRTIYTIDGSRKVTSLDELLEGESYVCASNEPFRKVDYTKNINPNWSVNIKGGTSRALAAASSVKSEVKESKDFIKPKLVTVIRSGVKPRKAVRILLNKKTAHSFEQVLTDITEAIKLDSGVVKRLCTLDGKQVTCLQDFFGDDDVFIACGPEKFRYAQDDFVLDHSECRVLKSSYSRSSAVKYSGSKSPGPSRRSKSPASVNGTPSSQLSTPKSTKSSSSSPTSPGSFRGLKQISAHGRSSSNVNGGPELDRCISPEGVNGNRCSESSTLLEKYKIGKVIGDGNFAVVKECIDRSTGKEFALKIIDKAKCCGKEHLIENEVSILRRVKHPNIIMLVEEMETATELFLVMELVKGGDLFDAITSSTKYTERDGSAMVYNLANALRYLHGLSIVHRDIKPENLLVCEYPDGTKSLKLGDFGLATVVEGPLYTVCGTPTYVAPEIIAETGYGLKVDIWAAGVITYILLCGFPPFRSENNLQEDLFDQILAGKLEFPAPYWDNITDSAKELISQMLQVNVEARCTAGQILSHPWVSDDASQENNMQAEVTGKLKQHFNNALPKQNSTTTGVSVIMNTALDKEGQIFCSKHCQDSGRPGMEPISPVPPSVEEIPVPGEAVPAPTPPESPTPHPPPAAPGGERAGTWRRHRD
Procedure, shortened: as §1

[11] = target: T4, MuSK(h) (Homo sapiens, UniProt O15146)
T4 sequence (O15146 24-869): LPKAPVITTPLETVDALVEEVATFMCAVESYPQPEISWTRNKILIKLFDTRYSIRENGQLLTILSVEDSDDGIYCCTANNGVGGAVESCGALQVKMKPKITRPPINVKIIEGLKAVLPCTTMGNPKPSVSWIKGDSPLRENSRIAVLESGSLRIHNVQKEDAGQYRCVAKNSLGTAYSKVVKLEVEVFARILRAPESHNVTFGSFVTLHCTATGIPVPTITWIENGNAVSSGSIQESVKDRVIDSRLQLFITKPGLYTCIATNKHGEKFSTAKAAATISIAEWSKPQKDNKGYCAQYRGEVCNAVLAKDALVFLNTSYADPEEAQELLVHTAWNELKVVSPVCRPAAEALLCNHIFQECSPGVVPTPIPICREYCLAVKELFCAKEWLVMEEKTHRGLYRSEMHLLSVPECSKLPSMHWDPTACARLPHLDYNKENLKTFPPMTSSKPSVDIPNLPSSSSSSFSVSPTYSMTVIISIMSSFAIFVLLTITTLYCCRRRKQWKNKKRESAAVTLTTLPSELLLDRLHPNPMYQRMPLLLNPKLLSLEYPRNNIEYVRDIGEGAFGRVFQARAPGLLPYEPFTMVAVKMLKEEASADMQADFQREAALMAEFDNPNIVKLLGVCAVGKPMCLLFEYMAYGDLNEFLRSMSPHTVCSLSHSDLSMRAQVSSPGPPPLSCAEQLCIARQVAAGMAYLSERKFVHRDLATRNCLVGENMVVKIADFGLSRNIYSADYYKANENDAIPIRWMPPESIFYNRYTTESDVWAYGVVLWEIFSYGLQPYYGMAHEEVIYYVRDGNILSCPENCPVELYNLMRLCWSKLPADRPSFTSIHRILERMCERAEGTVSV
Procedure, shortened: as §1

[12] = target: cKit(V654A)(h) (Homo sapiens, UniProt P10721, V654A)
Procedure, shortened: as §1

Chain of Tie2(h) (Q02763 23-1124): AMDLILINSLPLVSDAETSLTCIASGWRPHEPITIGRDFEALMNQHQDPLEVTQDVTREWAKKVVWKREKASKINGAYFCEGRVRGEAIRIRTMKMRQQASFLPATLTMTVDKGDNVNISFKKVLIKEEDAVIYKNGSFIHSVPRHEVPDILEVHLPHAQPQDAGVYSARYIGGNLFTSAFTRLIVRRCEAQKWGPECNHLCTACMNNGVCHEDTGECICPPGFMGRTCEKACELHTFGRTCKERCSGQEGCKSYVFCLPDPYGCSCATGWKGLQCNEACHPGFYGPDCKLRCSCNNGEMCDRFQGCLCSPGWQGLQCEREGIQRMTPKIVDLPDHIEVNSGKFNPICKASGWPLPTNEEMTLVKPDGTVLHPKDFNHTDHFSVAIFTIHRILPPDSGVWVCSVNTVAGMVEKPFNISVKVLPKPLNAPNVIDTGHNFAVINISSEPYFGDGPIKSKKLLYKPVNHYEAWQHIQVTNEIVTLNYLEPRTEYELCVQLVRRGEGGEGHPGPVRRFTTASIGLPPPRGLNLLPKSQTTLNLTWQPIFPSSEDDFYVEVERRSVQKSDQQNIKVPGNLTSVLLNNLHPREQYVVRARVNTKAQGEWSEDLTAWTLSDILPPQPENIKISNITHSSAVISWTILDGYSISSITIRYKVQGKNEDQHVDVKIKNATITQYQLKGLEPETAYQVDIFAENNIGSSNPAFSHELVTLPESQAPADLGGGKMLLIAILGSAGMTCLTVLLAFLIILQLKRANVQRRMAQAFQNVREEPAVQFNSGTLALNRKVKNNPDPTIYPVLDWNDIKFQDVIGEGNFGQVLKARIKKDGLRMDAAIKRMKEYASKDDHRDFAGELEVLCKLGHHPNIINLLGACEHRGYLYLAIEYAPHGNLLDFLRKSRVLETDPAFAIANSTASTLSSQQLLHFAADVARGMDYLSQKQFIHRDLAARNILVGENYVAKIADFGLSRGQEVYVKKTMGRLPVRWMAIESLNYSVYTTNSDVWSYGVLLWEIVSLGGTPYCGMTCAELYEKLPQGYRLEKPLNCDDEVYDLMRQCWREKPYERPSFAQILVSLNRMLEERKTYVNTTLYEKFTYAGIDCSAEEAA
Chain of FGFR1(h) (P11362 22-822): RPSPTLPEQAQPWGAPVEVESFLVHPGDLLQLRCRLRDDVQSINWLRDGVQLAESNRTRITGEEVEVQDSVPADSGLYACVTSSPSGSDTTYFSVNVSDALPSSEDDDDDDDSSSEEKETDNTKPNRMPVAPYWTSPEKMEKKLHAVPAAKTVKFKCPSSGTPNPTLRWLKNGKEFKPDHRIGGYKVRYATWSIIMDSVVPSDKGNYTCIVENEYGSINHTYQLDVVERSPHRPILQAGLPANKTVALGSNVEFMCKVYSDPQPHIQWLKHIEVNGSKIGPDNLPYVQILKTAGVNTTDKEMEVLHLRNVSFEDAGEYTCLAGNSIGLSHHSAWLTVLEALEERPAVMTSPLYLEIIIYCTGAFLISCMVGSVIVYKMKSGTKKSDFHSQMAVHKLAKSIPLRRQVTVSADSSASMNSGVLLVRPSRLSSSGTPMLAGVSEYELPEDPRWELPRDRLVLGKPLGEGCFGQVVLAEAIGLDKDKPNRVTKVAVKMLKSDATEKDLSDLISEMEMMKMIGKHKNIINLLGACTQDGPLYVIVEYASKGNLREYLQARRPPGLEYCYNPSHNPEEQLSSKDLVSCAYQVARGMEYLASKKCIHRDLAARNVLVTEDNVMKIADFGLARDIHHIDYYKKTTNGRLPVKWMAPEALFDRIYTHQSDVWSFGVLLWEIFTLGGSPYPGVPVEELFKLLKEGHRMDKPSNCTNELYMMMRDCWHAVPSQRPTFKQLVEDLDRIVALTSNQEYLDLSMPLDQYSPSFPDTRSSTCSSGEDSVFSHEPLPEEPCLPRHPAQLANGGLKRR
Chain of JNK3(h) (P53779 whole entry): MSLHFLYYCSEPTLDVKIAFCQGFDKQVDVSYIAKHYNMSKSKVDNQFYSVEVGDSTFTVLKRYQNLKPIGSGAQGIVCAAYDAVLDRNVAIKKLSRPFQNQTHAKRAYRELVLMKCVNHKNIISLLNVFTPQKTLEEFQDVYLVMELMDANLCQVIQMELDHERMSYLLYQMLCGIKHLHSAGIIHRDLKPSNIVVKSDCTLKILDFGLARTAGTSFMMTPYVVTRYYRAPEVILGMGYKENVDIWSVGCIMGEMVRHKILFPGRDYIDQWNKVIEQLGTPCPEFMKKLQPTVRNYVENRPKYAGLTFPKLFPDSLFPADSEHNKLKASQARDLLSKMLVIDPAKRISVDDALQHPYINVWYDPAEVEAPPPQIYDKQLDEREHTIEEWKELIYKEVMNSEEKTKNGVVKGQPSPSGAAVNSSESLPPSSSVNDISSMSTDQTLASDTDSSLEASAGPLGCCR
T1 sequence (P14616 27-1297): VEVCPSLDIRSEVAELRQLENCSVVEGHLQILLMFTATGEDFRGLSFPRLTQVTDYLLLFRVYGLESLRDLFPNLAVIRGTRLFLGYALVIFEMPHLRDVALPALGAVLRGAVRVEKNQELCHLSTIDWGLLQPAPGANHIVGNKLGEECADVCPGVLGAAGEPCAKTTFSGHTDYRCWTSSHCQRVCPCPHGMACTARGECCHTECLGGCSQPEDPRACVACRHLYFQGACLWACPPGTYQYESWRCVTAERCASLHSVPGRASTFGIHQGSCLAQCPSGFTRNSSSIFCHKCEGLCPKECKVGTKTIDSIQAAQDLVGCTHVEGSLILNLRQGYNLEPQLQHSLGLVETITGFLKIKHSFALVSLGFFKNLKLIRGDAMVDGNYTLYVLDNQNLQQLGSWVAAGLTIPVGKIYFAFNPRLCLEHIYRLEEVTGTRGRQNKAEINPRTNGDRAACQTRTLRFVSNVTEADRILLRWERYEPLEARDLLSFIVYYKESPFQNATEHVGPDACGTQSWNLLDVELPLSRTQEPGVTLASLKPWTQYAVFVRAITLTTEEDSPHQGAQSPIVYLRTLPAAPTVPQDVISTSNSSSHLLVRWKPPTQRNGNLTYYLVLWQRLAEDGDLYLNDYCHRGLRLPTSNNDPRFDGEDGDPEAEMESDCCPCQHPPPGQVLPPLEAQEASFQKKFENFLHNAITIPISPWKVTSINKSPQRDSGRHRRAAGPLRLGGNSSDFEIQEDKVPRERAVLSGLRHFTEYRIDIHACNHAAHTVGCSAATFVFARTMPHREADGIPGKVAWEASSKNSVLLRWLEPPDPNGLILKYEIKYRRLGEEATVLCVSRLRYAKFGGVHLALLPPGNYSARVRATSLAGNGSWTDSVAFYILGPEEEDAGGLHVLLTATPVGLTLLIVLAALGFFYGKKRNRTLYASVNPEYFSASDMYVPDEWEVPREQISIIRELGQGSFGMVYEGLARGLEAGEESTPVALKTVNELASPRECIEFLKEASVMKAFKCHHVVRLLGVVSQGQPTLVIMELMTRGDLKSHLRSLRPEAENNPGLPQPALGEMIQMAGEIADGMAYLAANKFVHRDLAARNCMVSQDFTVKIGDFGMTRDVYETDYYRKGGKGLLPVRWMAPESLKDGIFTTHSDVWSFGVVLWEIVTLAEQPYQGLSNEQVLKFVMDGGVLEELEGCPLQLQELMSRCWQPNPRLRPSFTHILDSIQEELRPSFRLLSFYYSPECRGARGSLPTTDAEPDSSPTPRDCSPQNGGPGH
Chain of FGFR1(V561M)(h) (P11362 22-822 V561M): as the sequence (P11362 22-822) above, with V540M counted along it
Chain of Fes(h) (P07332 whole entry): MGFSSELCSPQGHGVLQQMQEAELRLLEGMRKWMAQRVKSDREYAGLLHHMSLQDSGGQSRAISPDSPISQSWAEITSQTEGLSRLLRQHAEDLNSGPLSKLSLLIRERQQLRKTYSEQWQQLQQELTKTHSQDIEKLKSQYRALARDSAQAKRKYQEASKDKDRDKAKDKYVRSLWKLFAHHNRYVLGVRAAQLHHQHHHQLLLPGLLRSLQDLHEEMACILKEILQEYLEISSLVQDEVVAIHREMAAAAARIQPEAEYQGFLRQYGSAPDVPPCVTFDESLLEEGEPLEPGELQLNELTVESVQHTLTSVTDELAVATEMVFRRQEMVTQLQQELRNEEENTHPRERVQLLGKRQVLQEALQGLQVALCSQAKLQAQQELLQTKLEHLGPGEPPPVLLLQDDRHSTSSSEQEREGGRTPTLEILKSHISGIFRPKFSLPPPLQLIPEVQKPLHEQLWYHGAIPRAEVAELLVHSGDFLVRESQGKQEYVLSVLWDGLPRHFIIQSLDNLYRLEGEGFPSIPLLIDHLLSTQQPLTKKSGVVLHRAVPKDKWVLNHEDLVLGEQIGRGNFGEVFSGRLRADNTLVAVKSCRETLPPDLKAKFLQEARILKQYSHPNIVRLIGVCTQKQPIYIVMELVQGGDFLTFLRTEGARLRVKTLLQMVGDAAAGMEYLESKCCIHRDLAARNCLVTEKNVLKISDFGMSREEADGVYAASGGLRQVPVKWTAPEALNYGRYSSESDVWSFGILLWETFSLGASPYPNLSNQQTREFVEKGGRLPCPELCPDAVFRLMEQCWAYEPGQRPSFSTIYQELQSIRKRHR

| Sequence | AMPKα2(h) % activity [1] | IRR(h) % activity [2] | Tie2(h) % activity [3] | FGFR1(V561M)(h) % activity [4] | JNK3(h) % activity [5] | Fes(h) % activity [6] | FGFR1(h) % activity [7] | mTOR(h) % activity [8] | DMPK(h) % activity [9] | DCAMKL2(h) % activity [10] | MuSK(h) % activity [11] | cKit(V654A)(h) % activity [12] |
| --- | --- | --- | --- | --- | --- | --- | --- | --- | --- | --- | --- | --- |
| YARAAARQARAKALNRQLGVA (Mammalian) [MMI-0200] | 88% | 69% | 53% | 72% | 90% | 74% | 97% | 110% | 66% | 131% |  |  |
| HRRIKAWLKKIKALARQLGVAA (Mammalian) [MMI-0500] | 9% | 10% | 22% |  | 171% | 23% | 18% | 135% | 12% | 56% | 27% | 223% |
| KAFAKLAARLYRKALARQLGVAA [MMI-0400] | 58% | 8% | 21% | 74% | 70% | 16% | 59% | 93% | 54% | 70% | 93% | 150% |
| FAKLAARLYRKALARQLGVAA [MMI-0300] | 54% | 8% | 26% | 74% | 89% | 20% | 55% | 91% | 59% | 81% | 93% | 134% |
